Assay results from the supplement of paper PMC7877785.
± gives the uncertainty stated by the source.

Experiment: self-splicing fitness, log relative to wild type (ln ratio); higher = more splicing; Tetrahymena group I intron in knt gene, E. coli kanamycin selection, DiMSum; sequences stand for … in CUCUCU…GGAGGGAAAAGUUAUCAGGCAUGCACCUGGUAGCUAGUCUUUAAACCAAUAGAUUGCAUCGGUUUAAAAGGCAAGACCGUCAAAUUGCGGGAAAGGGGUCAACAGCCGUUCAGUACCAAGUCUCAGGGGAAACUUUGAGAUGGCCUUGCAAAGGGUAUGGUAAUAAGCUGACGGACAUGGUCCUAACCACGCAGCCAAGUCCUAAGUCAACAGAUCUUCUGUUGAUAUGGAUGCAGUUCACAGACUAAAUGUCGGUCGGGGAAGAUGUAUUCUUCUCAUAAGAUAUAGUCGGACCUCUCCUUAAUGGGAGCUAGCGGAUGAAGUGAUGCAACACUGGAGCCGCUGGGAACUAAUUUGUAUGCGAAAGUAUAUUGAUUAGUUUUGGAGUACUCGUGGUCG
Method in brief: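 Pooled colonies went to amplicon sequencing on an Illumina HiSeq 2500 after six replicate transformations. The plates were LB agar with 100 μg/mL carbenicillin, 50 μM IPTG and 0.2% rhamnose, with or without 25 μg/mL kanamycin, incubated overnight at 37°C or 30°C. The E. coli BL21(DE3) library had all eight P1ex-region intron nucleotides randomised, the intron placed in the knt kanamycin-resistance gene on pET-22b(+). DiMSum fitness is the error-weighted combination of replicate fold changes, kanamycin against none, normalised to wild type.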

Sequence	self-splicing fitness (ln) (30 °C)	self-splicing fitness (ln) (37 °C)
UCUCAGCAAUAUUACGAAAG	-1.9 ± 0.26	-1.36 ± 0.21
UCUCAGCAAUAUUACGACAG	-2.76 ± 0.17	-2.33 ± 0.17
UCUCAGCAAUAUUACGAGCC	-1.14 ± 0.19	-1.68 ± 0.41
UCUCAGCAAUAUUACGAGUU	-2.32 ± 0.11	-1.13 ± 0.099
UCUCAGCAAUAUUACGAUGA	-1.01 ± 0.12	-0.477 ± 0.11
UCUCAGCAAUAUUACGAUUU	-1.99 ± 0.093	-1.1 ± 0.12
UCUCAGCAAUAUUACGCCAA	-2.86 ± 0.27	-2.74 ± 0.29
UCUCAGCAAUAUUACGCGAC		-2.37 ± 0.35
UCUCAGCAAUAUUACGCGGC	-4.17 ± 0.42	-1.86 ± 0.27
UCUCAGCAAUAUUACGCGGU	-2.89 ± 0.26	-2.3 ± 0.28
UCUCAGCAAUAUUACGCUCU	-3.26 ± 0.26	-2.68 ± 0.41
UCUCAGCAAUAUUACGCUUC	-2.92 ± 0.21	-2.33 ± 0.28
UCUCAGCAAUAUUACGGAGU	-2.81 ± 0.22	-2.49 ± 0.19
UCUCAGCAAUAUUACGGCAU	-2.27 ± 0.11	-2.4 ± 0.16
UCUCAGCAAUAUUACGGCGA	-1.13 ± 0.1	-0.623 ± 0.11
UCUCAGCAAUAUUACGGCUA	-0.678 ± 0.29	-2.19 ± 0.32
UCUCAGCAAUAUUACGUAAU	-3.43 ± 0.18	-2.28 ± 0.18
UCUCAGCAAUAUUACGUCUA	-2.95 ± 0.28	-1.38 ± 0.15
UCUCAGCAAUAUUACGUCUG	-4.98 ± 0.45	-2.82 ± 0.25
UCUCAGCAAUAUUACGUGAU	-4.03 ± 0.21	-1.85 ± 0.13

Sequence	self-splicing fitness (ln) (30 °C)	self-splicing fitness (ln) (37 °C)
UCUCAGCAAUAUUACGUGGA	-3.7 ± 0.29	-1.05 ± 0.12
UCUCAGCAAUAUUACGUUAC		-1.86 ± 0.36
UCUCAGCAAUAUUACGUUCA	-2.49 ± 0.14	-1.15 ± 0.14
UCUGAGCAAUAUUACGAAGC		-1.48 ± 0.37
UCUGAGCAAUAUUACGAAUC	-3.29 ± 0.25	-3.03 ± 0.43
UCUGAGCAAUAUUACGAAUG	-2.96 ± 0.26	-1.66 ± 0.21
UCUGAGCAAUAUUACGAUGG	-1.42 ± 0.16	-0.717 ± 0.2
UCUGAGCAAUAUUACGAUUU	-2.65 ± 0.22	-1.31 ± 0.2
UCUGAGCAAUAUUACGCAAA	-2.8 ± 0.33	-1.27 ± 0.19
UCUGAGCAAUAUUACGCCAA		-1.51 ± 0.32
UCUGAGCAAUAUUACGCCAU		-2.32 ± 0.31
UCUGAGCAAUAUUACGCCCG	-2.56 ± 0.28	-2.38 ± 0.49
UCUGAGCAAUAUUACGCCGU	-3.13 ± 0.48	-1.56 ± 0.36
UCUGAGCAAUAUUACGCGGA	-3.6 ± 0.27	-2.66 ± 0.21
UCUGAGCAAUAUUACGCUAG	-1.31 ± 0.17	-1.43 ± 0.19
UCUGAGCAAUAUUACGGCGA	-0.309 ± 0.12	0.122 ± 0.18
UCUGAGCAAUAUUACGGGAG	-4.4 ± 0.36	-2.65 ± 0.29
UCUGAGCAAUAUUACGGGCG	-1.33 ± 0.17	-2.56 ± 0.22
UCUGAGCAAUAUUACGGGGA	-2.89 ± 0.2	-1.97 ± 0.19
UCUGAGCAAUAUUACGGGGC	-3.3 ± 0.32	-2.7 ± 0.36
